Data as given in paper PMC2680067 (European journal of human genetics : EJHG, 2008).

Biological target: the molecule itself
Test: cross-linking

B1: myc-EGFP-Trim50 (full-length mouse Trim50), expressed in U2OS cells (natural protein)
chain: MAWRLTVPELQDQLQCPICLEVFKEPLMLQCGHSYCKDCLDNLSQHLDSELCCPVCRQSVDCSSSPPNVSLARVIDALRLPGDIEPTVCVHHRNPLSLFCEKDQEFICGLCGLLGSHQHHRVTPVSTVYSRMKEELAGRISELKEEHRNVEEHIGKLVNNRTRIINESDVFSWVIRREFQELHHLVDEEKARCLEGLEGHTRGLVASLDMQLEQAQGTQERLAQAEQVLEQFGNESHHEFIRFHSVASRAEVQQARPLEGVFSPISFKPALHQADIKLTVWKRLFRKVLPAPASLKLDPATAHPLLELSKGNTVVHCGLLAQRRASQPERFDYSTCVLASKGFSWGRHYWEVVVGSKSDWRLGVIKGTASRKGKLNKSPEHGVWLIGLKEGRVYEAFGCPRLPLPVAGHPHRIGVYLHYEQGELTFFDADRPDDLRTLYTFQADFQGKLYPILDTCWHERGSNSLPMVLPPPSGPGHFTLGQV
  stoichiometry N: 3
